Patent US20210315964A1 (University of Pennsylvania, published 2021)

T1: recombinant human peroxiredoxin 6 (hPrdx6) (human, UniProt P30041 1-224, limits assumed)
T1 sequence (looked up): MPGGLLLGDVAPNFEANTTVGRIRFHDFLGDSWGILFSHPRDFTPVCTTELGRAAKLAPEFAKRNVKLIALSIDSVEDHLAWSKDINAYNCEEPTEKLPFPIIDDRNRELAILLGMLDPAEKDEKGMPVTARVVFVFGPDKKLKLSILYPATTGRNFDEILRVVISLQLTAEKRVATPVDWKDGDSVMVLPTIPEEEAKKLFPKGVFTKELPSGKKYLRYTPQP


target: T1, recombinant human peroxiredoxin 6 …; experiment: cell-based or functional assay

aiPLA2 activity of recombinant hPrdx6 with peptide (hPrdx6 only, no peptide: 93.4) [nmol/min/mg prot.] | Binder
97.1 | IKHQIL [SEQ ID NO: 14 IKHQIL (6)]
32 | DEELQTELYEIKHQIL [PIP-3 (rat, mouse, 16-mer) DEELQTELYEIKHQIL]
31.5 | QTELYEIKHQIL [SEQ ID NO: 11 QTELYEIKHQIL (12)]
102 | DEELQTELYEIK [SEQ ID NO: 15 … (14)]
95.7 | DEELQTELYEI [SEQ ID NO: 16 … (12)]
45 | DEELQATLHDFRHQIL [PIP-1 (human, 16-mer) DEELQATLHDFRHQIL]
28.6 | ELYEIKHQIL [SEQ ID NO: 12 ELYEIKHQIL (10)]
94.4 | YEIKHQIL [SEQ ID NO: 13 YEIKHQIL (8)]
33.2 | ELQTELYEIKHQIL [SEQ ID NO: 10 ELQTELYEIKHQIL (14)]

target: T1, recombinant human peroxiredoxin 6 …; experiment: cell-based or functional assay; remark: another data set of the same source

aiPLA2 activity of human recombinant protein with peptide (hPrdx6 only: 92.0) [nmol/min/mg prot.] | Binder
32 | DEELQTELYEIKHQIL [PIP-3 (rat, mouse, 16-mer) DEELQTELYEIKHQIL]
31.5 | TLHDFRHQI [SEQ ID NO: 19 … (10)]
29.9 | LHDFRHQIL [PIP-2 LHDFRHQIL]
32.3 | LYEIKHQIL [PIP-4 LYEIKHQIL]

target: T1, recombinant human peroxiredoxin 6 …; experiment: cell-based or functional assay; remark: another data set of the same source

Binder | aiPLA2 activity of human recombinant Prdx6 with peptide (no peptide, hPrdx6 only: 99.91) [nmol/min/mg prot.]
LYDIRHQIL [PIP-5 LYDIRHQIL] | 29.7
LKIEYHQIL [SN019 LKIEYHQIL] | 97.7
LHDFRHQIL [PIP-2 LHDFRHQIL] | 26.2
LRFDHHQIL [SN020 LRFDHHQIL] | 99

Next, values leading:

aiPLA2 activity of human recombinant Prdx6 with peptide (no peptide, hPrdx6 only: 99.91) [nmol/min/mg prot.] | Binder
99.4 | LHEFKHQIL [SN022 LHEFKHQIL]
98 | LFKLEHQIL [SN023 LFKLEHQIL]
102 | LHDFRHQLL [SN028 LHDFRHQLL]
102 | LHDFRDQIL [SN024 LHDFRDQIL]
101 | LHDFRPQIL [SN025 LHDFRPQIL]
99 | LHDFRHNIL [SN026 LHDFRHNIL]
100 | LHDFRHQTL [SN029 (row of SEQ ID NO: 33) LHDFRHQTL]
97.3 | LHDFRHIIL [SN029 (row of SEQ ID NO: 31) LHDFRHIIL]
